Measured values reported in IntAct's records for PubMed 25173175.

B1: Cohesin subunit SA-2 (Homo sapiens), Q8N3U4 (parent)
chain: MIAAPEIPTDFNLLQESETHFSSDTDFEDIEGKNQKQGKGKTCKKGKKGPAEKGKGGNGGGKPPSGPNRMNGHHQQNGVENMMLFEVVKMGKSAMQSVVDDWIESYKHDRDIALLDLINFFIQCSGCKGVVTAEMFRHMQNSEIIRKMTEEFDEDSGDYPLTMAGPQWKKFKSSFCEFIGVLVRQCQYSIIYDEYMMDTVISLLTGLSDSQVRAFRHTSTLAAMKLMTALVNVALNLSINMDNTQRQYEAERNKMIGKRANERLELLLQKRKELQENQDEIENMMNAIFKGVFVHRYRDAIAEIRAICIEEIGIWMKMYSDAFLNDSYLKYVGWTMHDKQGEVRLKCLTALQGLYYNKELNSKLELFTSRFKDRIVSMTLDKEYDVAVQAIKLLTLVLQSSEEVLTAEDCENVYHLVYSAHRPVAVAAGEFLYKKLFSRRDPEEDGMMKRRGRQGPNANLVKTLVFFFLESELHEHAAYLVDSMWDCATELLKDWECMNSLLLEEPLSGEEALTDRQESALIEIMLCTIRQAAECHPPVGRGTGKRVLTAKEKKTQLDDRTKITELFAVALPQLLAKYSVDAEKVTNLLQLPQYFDLEIYTTGRLEKHLDALLRQIRNIVEKHTDTDVLEACSKTYHALCNEEFTIFNRVDISRSQLIDELADKFNRLLEDFLQEGEEPDEDDAYQVLSTLKRITAFHNAHDLSKWDLFACNYKLLKTGIENGDMPEQIVIHALQCTHYVILWQLAKITESSSTKEDLLRLKKQMRVFCQICQHYLTNVNTTVKEQAFTILCDILMIFSHQIMSGGRDMLEPLVYTPDSSLQSELLSFILDHVFIEQDDDNNSADGQQEDEASKIEALHKRRNLLAAFCKLIVYTVVEMNTAADIFKQYMKYYNDYGDIIKETMSKTRQIDKIQCAKTLILSLQQLFNEMIQENGYNFDRSSSTFSGIKELARRFALTFGLDQLKTREAIAMLHKDGIEFAFKEPNPQGESHPPLNLAFLDILSEFSSKLLRQDKRTVYVYLEKFMTFQMSLRREDVWLPLMSYRNSLLAGGDDDTMSVISGISSRGSTVRSKKSKPSTGKRKVVEGMQLSLTEESSSSDSMWLSREQTLHTPVMMQTPQLTSTIMREPKRLRPEDSFMSVYPMQTEHHQTPLDYNRRGTSLMEDDEEPIVEDVMMSSEGRIEDLNEGMDFDTMDIDLPPSKNRRERTELKPDFFDPASIMDESVLGVSMF
partner: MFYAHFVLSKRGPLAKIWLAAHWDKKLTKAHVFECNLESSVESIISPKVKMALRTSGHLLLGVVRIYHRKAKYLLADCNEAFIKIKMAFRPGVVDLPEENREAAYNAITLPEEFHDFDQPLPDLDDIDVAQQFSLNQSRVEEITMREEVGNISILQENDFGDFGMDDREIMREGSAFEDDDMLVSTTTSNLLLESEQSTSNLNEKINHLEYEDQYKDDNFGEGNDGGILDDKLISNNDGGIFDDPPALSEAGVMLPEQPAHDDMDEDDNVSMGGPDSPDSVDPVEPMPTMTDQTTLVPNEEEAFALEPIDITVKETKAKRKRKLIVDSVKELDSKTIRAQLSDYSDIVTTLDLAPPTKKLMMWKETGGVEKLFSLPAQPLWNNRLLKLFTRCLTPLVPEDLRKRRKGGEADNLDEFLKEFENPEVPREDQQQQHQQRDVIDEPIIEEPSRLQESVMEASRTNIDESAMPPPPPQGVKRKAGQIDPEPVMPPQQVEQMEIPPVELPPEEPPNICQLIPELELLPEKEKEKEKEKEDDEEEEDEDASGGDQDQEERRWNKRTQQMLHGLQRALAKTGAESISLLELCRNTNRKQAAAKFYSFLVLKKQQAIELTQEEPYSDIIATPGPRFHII
B2: Double-strand-break repair protein rad21 homolog (Homo sapiens), O60216 (parent)
chain: B1 partner
partner: B1 chain
B3: Cohesin subunit SA-2 (Homo sapiens), Q8N3U4 (parent)
chain: B1 chain
partner: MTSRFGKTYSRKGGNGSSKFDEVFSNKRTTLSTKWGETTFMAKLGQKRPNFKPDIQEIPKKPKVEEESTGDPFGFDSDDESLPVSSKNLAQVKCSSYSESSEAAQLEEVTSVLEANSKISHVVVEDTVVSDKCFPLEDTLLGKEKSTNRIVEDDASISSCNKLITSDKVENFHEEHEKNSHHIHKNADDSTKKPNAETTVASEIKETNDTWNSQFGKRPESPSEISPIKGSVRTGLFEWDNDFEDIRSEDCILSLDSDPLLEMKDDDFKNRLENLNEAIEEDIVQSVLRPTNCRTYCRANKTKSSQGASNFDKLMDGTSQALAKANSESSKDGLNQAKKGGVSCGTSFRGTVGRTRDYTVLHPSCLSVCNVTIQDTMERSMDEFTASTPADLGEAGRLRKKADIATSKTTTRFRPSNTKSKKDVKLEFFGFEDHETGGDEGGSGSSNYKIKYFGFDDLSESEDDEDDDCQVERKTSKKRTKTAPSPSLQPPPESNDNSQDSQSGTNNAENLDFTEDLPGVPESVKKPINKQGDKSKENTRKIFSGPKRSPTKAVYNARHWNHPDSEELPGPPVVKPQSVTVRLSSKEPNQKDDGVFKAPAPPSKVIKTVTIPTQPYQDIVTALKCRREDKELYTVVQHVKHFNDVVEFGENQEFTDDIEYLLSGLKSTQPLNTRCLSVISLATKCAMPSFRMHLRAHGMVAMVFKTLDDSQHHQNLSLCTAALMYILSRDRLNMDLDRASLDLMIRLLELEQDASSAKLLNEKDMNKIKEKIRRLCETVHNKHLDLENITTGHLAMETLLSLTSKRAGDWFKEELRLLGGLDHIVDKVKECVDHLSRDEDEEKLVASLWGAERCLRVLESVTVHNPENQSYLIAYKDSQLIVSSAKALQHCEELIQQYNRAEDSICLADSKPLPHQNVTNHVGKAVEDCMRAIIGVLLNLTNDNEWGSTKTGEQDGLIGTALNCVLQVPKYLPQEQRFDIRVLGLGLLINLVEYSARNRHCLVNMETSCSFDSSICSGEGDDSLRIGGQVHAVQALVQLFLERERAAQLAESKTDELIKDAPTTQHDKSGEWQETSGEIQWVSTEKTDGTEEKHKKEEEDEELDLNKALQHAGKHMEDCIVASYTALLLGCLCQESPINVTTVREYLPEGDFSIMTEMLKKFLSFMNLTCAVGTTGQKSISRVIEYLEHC

Variants of: B1
Details: with rad21_human RAD21, O60216

| Variant | effect of a mutation on the interaction |
| --- | --- |
| D793K | disrupting interaction strength |

Variants of: B2
Details: with stag2_human STAG2, Q8N3U4

| Variant | effect of a mutation on the interaction |
| --- | --- |
| L385A;L388A;F389A | disrupting interaction strength |

Variants of: B2
Details: with stag2_human STAG2, Q8N3U4
Remark: another data set of the same source

| Variant | effect of a mutation on the interaction |
| --- | --- |
| D327K | decreasing interaction strength |

Variants of: B3
Details: with wapl_human WAPL

| Variant | effect of a mutation on the interaction |
| --- | --- |
| K290E | disrupting interaction strength |
| W334A | decreasing interaction strength |
| D326K | disrupting interaction strength |
| K330E | disrupting interaction strength |
